Assay results taken from patent US20190010233A1.

What was measured:
[1] = molecular target: full length human PD-L1 on cells (human) (UniProt Q9NZQ7); assay: FACS CHO-K1-hPD-L1, 10 nM mAb
[2] = molecular target: cyno PD-L1^ECD-hFc protein (cyno) (UniProt G7PSE7); assay: ELISA, 10 nM mAb
[3] = molecular target: human PD-L1^ECD-hFc protein (human) (UniProt Q9NZQ7); assay: ELISA, 1.111 nM mAb
[4] = molecular target: full length human PD-L1 on cells (human) (UniProt Q9NZQ7); assay: FACS CHO-K1-hPD-L1, 100.00 nM mAb
[5] = molecular target: full length cyno PD-L1 on cells (cyno) (UniProt G7PSE7); assay: FACS CHO-K1-cPD-L1, 3.70 nM mAb
full length cyno PD-L1 on cells (cyno), sequence (G7PSE7 entry or part of it limits assumed): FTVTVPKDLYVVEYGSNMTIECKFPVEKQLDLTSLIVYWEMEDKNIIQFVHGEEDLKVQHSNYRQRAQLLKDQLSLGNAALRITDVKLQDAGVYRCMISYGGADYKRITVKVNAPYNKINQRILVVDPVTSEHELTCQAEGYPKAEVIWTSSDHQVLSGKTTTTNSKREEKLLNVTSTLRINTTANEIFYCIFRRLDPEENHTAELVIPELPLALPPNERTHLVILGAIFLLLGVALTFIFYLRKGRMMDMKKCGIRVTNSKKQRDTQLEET

[6] = molecular target: cyno PD-L1^ECD-hFc protein (cyno) (UniProt G7PSE7); assay: ELISA, 0.0001 nM mAb
[7] = molecular target: human PD-L1^ECD-hFc protein (human) (UniProt Q9NZQ7); assay: ELISA, 0.0001 nM mAb
[8] = molecular target: full length cyno PD-L1 on cells (cyno) (UniProt G7PSE7); assay: FACS CHO-K1-cPD-L1, 0.0003 nM mAb
[9] = molecular target: full length human PD-L1 on cells (human) (UniProt Q9NZQ7); assay: FACS CHOK1-hPD-L1, 30 nM mAb
[10] = molecular target: cyno PD-L1^ECD-hFc protein (cyno) (UniProt G7PSE7); assay: ELISA, 0.001 nM mAb
[11] = molecular target: human PD-L1^ECD-hFc protein (human) (UniProt Q9NZQ7); assay: ELISA, 0.001 nM mAb
[12] = molecular target: cyno PD-L1^ECD-hFc protein (cyno) (UniProt G7PSE7); assay: ELISA, 0.370 nM mAb
[13] = molecular target: human PD-L1^ECD-hFc protein (human) (UniProt Q9NZQ7); assay: ELISA, 0.370 nM mAb
[14] = molecular target: cyno PD-L1^ECD-hFc protein (cyno) (UniProt G7PSE7); assay: ELISA, 1 nM mAb
[15] = molecular target: human PD-L1^ECD-hFc protein (human) (UniProt Q9NZQ7); assay: ELISA, 1 nM mAb
[16] = molecular target: cyno PD-L1^ECD-hFc protein (cyno) (UniProt G7PSE7); assay: ELISA, 3.333 nM mAb
[17] = molecular target: human PD-L1^ECD-hFc protein (human) (UniProt Q9NZQ7); assay: ELISA, 3.333 nM mAb
[18] = molecular target: full length cyno PD-L1 on cells (cyno) (UniProt G7PSE7); assay: FACS CHO-K1-cPD-L1, 33.33 nM mAb
[19] = molecular target: full length cyno PD-L1 on cells (cyno) (UniProt G7PSE7); assay: FACS CHO-K1-cPD-L1, 1.23 nM mAb
[20] = molecular target: full length cyno PD-L1 on cells (cyno) (UniProt G7PSE7); assay: FACS CHO-K1-cPD-L1, 300 nM mAb
[21] = molecular target: cyno PD-L1^ECD-hFc protein (cyno) (UniProt G7PSE7); assay: ELISA, 0.3 nM mAb
[22] = molecular target: human PD-L1^ECD-hFc protein (human) (UniProt Q9NZQ7); assay: ELISA, 0.3 nM mAb
[23] = molecular target: cyno PD-L1^ECD-hFc protein (cyno) (UniProt G7PSE7); assay: ELISA, 10 nM mAb; remark: listed apart in the source
[24] = molecular target: human PD-L1^ECD-hFc protein (human) (UniProt Q9NZQ7); assay: ELISA, 10 nM mAb
[25] = molecular target: cyno PD-L1^ECD-hFc protein (cyno) (UniProt G7PSE7); assay: ELISA, 0.003 nM mAb
[26] = molecular target: human PD-L1^ECD-hFc protein (human) (UniProt Q9NZQ7); assay: ELISA, 0.003 nM mAb
[27] = molecular target: full length cyno PD-L1 on cells (cyno) (UniProt G7PSE7); assay: FACS CHO-K1-cPD-L1, 30 nM mAb
[28] = molecular target: full length cyno PD-L1 on cells (cyno) (UniProt G7PSE7); assay: FACS CHO-K1-cPD-L1, 0.14 nM mAb
[29] = molecular target: cyno PD-L1^ECD-hFc protein (cyno) (UniProt G7PSE7); assay: ELISA, 0.123 nM mAb
[30] = molecular target: human PD-L1^ECD-hFc protein (human) (UniProt Q9NZQ7); assay: ELISA, 0.123 nM mAb
[31] = molecular target: full length human PD-L1 on cells (human) (UniProt Q9NZQ7); assay: FACS CHOK1-hPD-L1, 3 nM mAb
[32] = molecular target: human PD-L1^ECD-hFc protein (human) (UniProt Q9NZQ7); assay: ELISA, 30 nM mAb
[33] = molecular target: cyno PD-L1^ECD-hFc protein (cyno) (UniProt G7PSE7); assay: ELISA, 30 nM mAb
[34] = molecular target: cyno PD-L1^ECD-hFc protein (cyno) (UniProt G7PSE7); assay: ELISA, 0.03 nM mAb
[35] = molecular target: human PD-L1^ECD-hFc protein (human) (UniProt Q9NZQ7); assay: ELISA, 0.03 nM mAb

human PD-L1^ECD-hFc protein (human), sequence (Q9NZQ7 19-239): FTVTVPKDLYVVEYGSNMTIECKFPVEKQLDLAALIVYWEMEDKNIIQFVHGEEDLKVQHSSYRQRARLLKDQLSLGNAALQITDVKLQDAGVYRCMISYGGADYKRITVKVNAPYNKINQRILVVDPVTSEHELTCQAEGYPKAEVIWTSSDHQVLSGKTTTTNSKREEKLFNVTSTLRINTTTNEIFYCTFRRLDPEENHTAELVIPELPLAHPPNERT
full length human PD-L1 on cells (human), sequence (Q9NZQ7 19-290 limits assumed): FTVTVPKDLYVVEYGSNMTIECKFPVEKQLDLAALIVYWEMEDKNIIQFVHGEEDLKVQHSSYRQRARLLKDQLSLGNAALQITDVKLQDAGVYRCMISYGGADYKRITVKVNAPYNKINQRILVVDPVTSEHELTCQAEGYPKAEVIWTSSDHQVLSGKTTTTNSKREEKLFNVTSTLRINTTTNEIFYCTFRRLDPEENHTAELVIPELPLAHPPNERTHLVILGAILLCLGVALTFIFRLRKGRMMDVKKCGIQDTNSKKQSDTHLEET
cyno PD-L1^ECD-hFc protein (cyno), sequence (G7PSE7 entry or part of it limits assumed): as the sequence (Q9NZQ7 19-239) above, with A33T, A34S, S62N, R68Q, Q82R, F173L, T185A, T192I, H215L counted along it

Mean fluorescence intensity [1]: 2.73
OD450 nm [2]: 0.134
OD450 nm [3]: 0.16
Mean fluorescence intensity [4]: 2.7
Mean fluorescence intensity [5]: 2.73
OD450 nm [6]: 0.0988
OD450 nm [7]: 0.162
Mean fluorescence intensity [8]: 3.76
Mean fluorescence intensity [9]: 5.73
OD450 nm [10]: 0.0972
OD450 nm [11]: 0.149
OD450 nm [12]: 0.12
OD450 nm [13]: 0.12
OD450 nm [14]: 0.0989
OD450 nm [15]: 0.157
OD450 nm [16]: 0.11
OD450 nm [17]: 0.11
Mean fluorescence intensity [18]: 2.94
Mean fluorescence intensity [19]: 2.82
Mean fluorescence intensity [20]: 15.6
OD450 nm [21]: 0.28
OD450 nm [22]: 0.293
OD450 nm [23]: 0.15
OD450 nm [24]: 0.225
OD450 nm [25]: 0.302
OD450 nm [26]: 0.298
Mean fluorescence intensity [27]: 4.12
Mean fluorescence intensity [28]: 2.74
OD450 nm [29]: 0.11
OD450 nm [30]: 0.11
Mean fluorescence intensity [31]: 3.56
OD450 nm [32]: 0.12
OD450 nm [33]: 0.306
OD450 nm [34]: 0.276
OD450 nm [35]: 0.273
Substance: IgG control (human IgG) (antibody)
